Laboratory results as given in article PMC11480477, “STIC2 selectively binds ribosome-nascent chain complexes in the cotranslational sorting of Arabidopsis thylakoid proteins” (The EMBO Journal, 2024).

B4: His-STIC2 (mature STIC2, aa 49–182) (natural protein, A. thaliana, UniProt O82230 49-182, looked up)
chain: VNGLFGGGNKDNNSEDGQSKAGIFGNMQNMYETVKKAQMVVQVEAVRVQKELAAAEFDGYCAGELVKVTLSGNQQPIRTDITEAAMELGSEKLSQLVTEAYKDAHAKSVVAMKERMSDLAQSLGMPPGLSEGMK
notes: STIC2 of A. thaliana, mature protein aa 49–182 (transit peptide predicted with TargetP), in pET-Duet1; The N-terminal place of the tag is read from the printed name His-STIC2; also called recombinant mature His-STIC2; suppressor of tic40 protein 2; source: E. coli Rosetta2 (DE3) or BL21 (DE3), purified (HisTrap HP, native conditions); not shown: His tag, N-terminal, kept

Legend:
Details in all cases: both partners purified
[1] = target: T1, GST-STIC2 E112A (A. thaliana, UniProt O82230 49-182, E112A); assay: pull-down; 20 µg GST-STIC2 variants with 20 µg Alb3C-His in PBS with 160 mM NaCl, 120 µl, room temperature; glutathione sepharose; eluates by immunoblot, coelution quantified with ImageJ
T1 construct: STIC2 of A. thaliana, mature protein aa 49–182, in pGEX4T3; source: E. coli Rosetta2 (DE3) or BL21 (DE3), purified (glutathione sepharose); not shown: GST, N-terminal, kept
T1 sequence (looked up): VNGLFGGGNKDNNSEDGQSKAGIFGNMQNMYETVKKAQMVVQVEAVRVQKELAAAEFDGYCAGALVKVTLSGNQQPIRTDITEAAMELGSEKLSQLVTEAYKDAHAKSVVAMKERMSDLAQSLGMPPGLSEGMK

[2] = target: T2, GST-STIC2 E131G (A. thaliana, UniProt O82230 49-182, E131G); assay: as above
T2 construct: STIC2 of A. thaliana, mature protein aa 49–182, in pGEX4T3; The results speak only of E131; source: E. coli Rosetta2 (DE3) or BL21 (DE3), purified (glutathione sepharose); not shown: GST, N-terminal, kept
T2 sequence (looked up): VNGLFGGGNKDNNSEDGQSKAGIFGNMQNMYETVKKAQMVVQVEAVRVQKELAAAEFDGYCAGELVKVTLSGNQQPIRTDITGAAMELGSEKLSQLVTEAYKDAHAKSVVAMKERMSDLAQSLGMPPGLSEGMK

[3] = target: T3, GST-STIC2 E112A K115A (A. thaliana, UniProt O82230 49-182, E112A | K115A); assay: as above
T3 construct: STIC2 of A. thaliana, mature protein aa 49–182, in pGEX4T3; also called STIC2 E112A K115A double mutant; source: E. coli Rosetta2 (DE3) or BL21 (DE3), purified (glutathione sepharose); not shown: GST, N-terminal, kept
T3 sequence (looked up): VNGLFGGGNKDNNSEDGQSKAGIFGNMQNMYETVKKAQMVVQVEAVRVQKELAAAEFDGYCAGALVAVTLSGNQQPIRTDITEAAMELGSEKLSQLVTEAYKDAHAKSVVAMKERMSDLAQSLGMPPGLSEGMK

[4] = target: B4; assay: ITC; His-STIC2 titrated (1.5 mM into 0.15 mM Alb3C-His or Alb3CΔIII-His; 1 mM into 0.1 mM Alb4C-His or Alb4CΔIII-His); 20 mM HEPES, 150 mM NaCl, pH 8.0, 25 °C; one-site binding model; two to five independent experiments
[5] = target: B4; assay: peptide or protein array; pepspot membranes with 15mer peptides of Alb3 (aa 155–208, 282–462) and Alb4 (aa 139–192, 266–499); His-STIC2 5 µg/ml for 3 h at room temperature, TBST washes, detection with anti-His HRP conjugate
[6] = target: T4, Alb4C-His R399G (UniProt Q9FYL3 334-499, R399G); assay: pull-down; 20 µg GST-STIC2 variants with 20 µg Alb4C-His variants in PBS, 120 µl, room temperature; glutathione sepharose; eluates by immunoblot, coelution quantified with ImageJ
T4 construct: Alb4, C-terminal region aa 334–499, in pET29b; source: E. coli Rosetta2 (DE3) or BL21 (DE3), purified (HisTrap HP); not shown: His tag, C-terminal, kept
T4 sequence (looked up): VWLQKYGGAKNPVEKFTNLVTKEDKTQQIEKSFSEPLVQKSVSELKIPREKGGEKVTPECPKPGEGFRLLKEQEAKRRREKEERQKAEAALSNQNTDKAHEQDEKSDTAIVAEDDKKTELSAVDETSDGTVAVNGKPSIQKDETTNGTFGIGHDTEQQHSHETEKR

[7] = target: T5, Alb4C-His F400G (UniProt Q9FYL3 334-499, F400G); assay: as above
T5 construct: Alb4, C-terminal region aa 334–499, in pET29b; source: E. coli Rosetta2 (DE3) or BL21 (DE3), purified (HisTrap HP); not shown: His tag, C-terminal, kept
T5 sequence (looked up): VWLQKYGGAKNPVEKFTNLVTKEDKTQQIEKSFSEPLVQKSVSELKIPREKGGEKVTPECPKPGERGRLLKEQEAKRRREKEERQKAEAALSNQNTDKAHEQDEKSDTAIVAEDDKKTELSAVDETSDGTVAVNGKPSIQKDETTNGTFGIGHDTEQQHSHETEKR

[8] = target: T6, Alb4C-His E407G (UniProt Q9FYL3 334-499, E407G); assay: as above
T6 construct: Alb4, C-terminal region aa 334–499, in pET29b; source: E. coli Rosetta2 (DE3) or BL21 (DE3), purified (HisTrap HP); not shown: His tag, C-terminal, kept
T6 sequence (looked up): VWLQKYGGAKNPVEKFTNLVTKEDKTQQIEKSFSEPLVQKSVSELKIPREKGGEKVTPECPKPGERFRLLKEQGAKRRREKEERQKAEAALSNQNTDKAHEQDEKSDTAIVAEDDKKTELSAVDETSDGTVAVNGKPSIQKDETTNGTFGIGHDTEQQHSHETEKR

[9] = target: T7, Alb4C-His R410G (UniProt Q9FYL3 334-499, R410G); assay: as above
T7 construct: Alb4, C-terminal region aa 334–499, in pET29b; source: E. coli Rosetta2 (DE3) or BL21 (DE3), purified (HisTrap HP); not shown: His tag, C-terminal, kept
T7 sequence (looked up): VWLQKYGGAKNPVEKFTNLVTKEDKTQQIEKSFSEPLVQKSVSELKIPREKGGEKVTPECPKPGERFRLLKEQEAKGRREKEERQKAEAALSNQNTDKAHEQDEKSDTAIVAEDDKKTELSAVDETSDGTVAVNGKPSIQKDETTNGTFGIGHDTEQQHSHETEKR

[10] = target: T8, Alb4C-His (aa 334–499) (UniProt Q9FYL3 334-499); assay: ITC; His-STIC2 titrated (1.5 mM into 0.15 mM Alb3C-His or Alb3CΔIII-His; 1 mM into 0.1 mM Alb4C-His or Alb4CΔIII-His); 20 mM HEPES, 150 mM NaCl, pH 8.0, 25 °C; one-site binding model; two to five independent experiments
T8 construct: Alb4, stromal C-terminal region aa 334–499, in pET29b; also called C-terminal region of Alb4; source: E. coli Rosetta2 (DE3) or BL21 (DE3), purified (HisTrap HP); not shown: His tag, C-terminal, kept
T8 sequence (looked up): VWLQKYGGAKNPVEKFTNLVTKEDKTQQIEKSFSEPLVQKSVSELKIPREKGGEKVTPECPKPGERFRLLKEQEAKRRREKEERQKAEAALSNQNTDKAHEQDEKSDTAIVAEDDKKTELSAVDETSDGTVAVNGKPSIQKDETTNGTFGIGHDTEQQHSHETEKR

[11] = target: T8, Alb4C-His (aa 334–499); assay: pull-down; 20 µg GST-STIC2 variants with 20 µg Alb4C-His variants in PBS, 120 µl, room temperature; glutathione sepharose; eluates by immunoblot, coelution quantified with ImageJ

B1: Alb3C-His (aa 350–462) (domain or fragment, UniProt Q8LBP4 350-462, looked up)
chain: VYLRKLGGAKPNMDENASKIISAGRAKRSIAQPDDAGERFRQLKEQEKRSKKNKAVAKDTVELVEESQSESEEGSDDEEEEAREGALASSTTSKPLPEVGQRRSKRSKRKRTV
notes: Alb3, stromal C-terminal region aa 350–462, in pET29b; also called C-terminal region of Alb3; source: E. coli Rosetta2 (DE3) or BL21 (DE3), purified (HisTrap HP); not shown: His tag, C-terminal, kept
With B1 the “percent reduction of binding against GST-STIC2” value (from here on “percent reduction of binding”) [1] was ~15%, the “percent reduction of binding” value [2] was ~80% and the “percent reduction of binding” value [3] was ~80%. The Kd [4] was 150 µM.

B2: Alb3 peptide aa 386–400 (15mer pepspot) (peptide, UniProt Q8LBP4 386-400, looked up)
peptide: GERFRQLKEQEKRSK
notes: largely Motif III; source: synthetic peptide, spot on a membrane (JPT Peptide Technologies)
B2: binds [5].

B3: GST-STIC2 (natural protein, A. thaliana, UniProt O82230 49-182, looked up)
chain: VNGLFGGGNKDNNSEDGQSKAGIFGNMQNMYETVKKAQMVVQVEAVRVQKELAAAEFDGYCAGELVKVTLSGNQQPIRTDITEAAMELGSEKLSQLVTEAYKDAHAKSVVAMKERMSDLAQSLGMPPGLSEGMK
notes: STIC2 of A. thaliana, mature protein aa 49–182, in pGEX4T3; also called pGEX4T3-GST-STIC2; source: E. coli Rosetta2 (DE3) or BL21 (DE3), purified (glutathione sepharose); not shown: GST, N-terminal, kept
B3: binds [6]; binds [7]; binds [8]. B3: binds [9].

Binder B4 has a Kd [10] of 17 µM.

B5: GST-STIC2 K115A (natural protein, A. thaliana, UniProt O82230 49-182, looked up)
chain: VNGLFGGGNKDNNSEDGQSKAGIFGNMQNMYETVKKAQMVVQVEAVRVQKELAAAEFDGYCAGELVAVTLSGNQQPIRTDITEAAMELGSEKLSQLVTEAYKDAHAKSVVAMKERMSDLAQSLGMPPGLSEGMK
notes: STIC2 of A. thaliana, mature protein aa 49–182, in pGEX4T3; source: E. coli Rosetta2 (DE3) or BL21 (DE3), purified (glutathione sepharose); not shown: GST, N-terminal, kept
B5: binds [11].

B6: Alb4 peptide aa 394–408 (15mer pepspot) (peptide, UniProt Q9FYL3 394-408, looked up)
peptide: PKPGERFRLLKEQEA
notes: as for B2
B6: binds [5].
